T1: monkey GUCY2C-rCD4 fusion protein (Macaca fascicularis (crab-eating …, limits assumed))
T1 construct: Prepared by the same method as the human antigen; also called Cy-GUCY2C-rCD4; monkey GUCY2C recombinant antigen
T1 chain: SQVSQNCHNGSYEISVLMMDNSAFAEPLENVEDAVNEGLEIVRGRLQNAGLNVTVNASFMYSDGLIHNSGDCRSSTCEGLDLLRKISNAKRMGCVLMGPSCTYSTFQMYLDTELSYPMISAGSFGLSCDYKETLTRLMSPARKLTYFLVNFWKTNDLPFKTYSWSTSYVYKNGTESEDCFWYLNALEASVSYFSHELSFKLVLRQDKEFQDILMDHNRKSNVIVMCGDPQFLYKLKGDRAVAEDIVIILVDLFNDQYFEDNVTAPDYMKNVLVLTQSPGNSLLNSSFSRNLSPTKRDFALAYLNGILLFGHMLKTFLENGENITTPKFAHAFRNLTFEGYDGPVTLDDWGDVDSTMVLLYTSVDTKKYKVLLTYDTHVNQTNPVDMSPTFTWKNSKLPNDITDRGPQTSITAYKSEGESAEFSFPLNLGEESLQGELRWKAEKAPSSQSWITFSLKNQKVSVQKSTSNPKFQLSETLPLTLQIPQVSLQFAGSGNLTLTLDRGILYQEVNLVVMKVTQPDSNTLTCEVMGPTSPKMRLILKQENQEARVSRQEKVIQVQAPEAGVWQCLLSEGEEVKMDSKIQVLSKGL

B1: scFv B11 (scFv)
scFv: QVQLVESGAEVKKPGSSVKVSCKASGGTFSSYAISWVRQAPGQGLEWMGGIIPIFGTANYAQKFQGRVTITADESTSTAYMELSGLRSEDTAVYYCARGIQPLRYYGMDVWGQGTLVTVSSGGGGSGGGGSGGGASQSALTQPPSASGTPGQRVTISCSGSSSNIGSNYVYWYQQLPGTAPKLLIYRNNQRPSGVPDRFSGSKSGTSASLAISGLRSEDEADYYCAAWDDSLSGRGVFGGGTQLTVL
notes: also called 2437_02_G07; G07
B2: scFv B01 (scFv)
scFv: EVQLVQPGAEVKKPGSSVKVSCKASGGTLSSYAISWVRQAPGQGLEWMGRIIPILGITNYAQKFQGRVTITADKSTSTAYMELSSLRSEDTAVYFCARDQRPASMDVWGQGTLVTVSSGGGGSGGGGSGGGASQSGLTQPASVSGSPGQSITISCTGTSSDVGGYNYVSWYQQHPGKAPKLMIYEVSNRPSGVSNRFSGSKSGNTASLTISGLQAEDEADYYCSTVTSLSTYVFGTGTKLTVL
notes: also called 2433_01_H07; H07
B3: scFv A10 (scFv)
scFv: EVQLVQSGAEVKKPGSSVKVSCKASGGTFSSYAISWVRQAPGQGLEWMGGIIPIFGTANYAQKFQGRVTITADESTSTAYMELSSLRSEDTAVYYCARTRYIWGSYRAYGMDVWGQGTMVTVSSGGGGSGGGGSGGGASDIQMTQSPSSMSASVGDRVTITCRASQSISSHLNWYQQLPGNAPTLLIYYASNLQSGVPSRFSGSGSGTDFTLTISSLQPDDFATYYCQQSISLPYTFGQGTKVEIK
notes: also called 2432_01_D08; D08
B4: scFv B12 (scFv)
scFv: QVQLVESGGGLVKPGGSLRLSCAASGFTFSSYSMNWVRQAPGKGLEWVSVIYSGGSTHYADSVKGRFTISRHNSKNTLYLQMNSLRAEDTAVYYCARGAGTLNAFDIWGQGTTVTVSSGGGGSGGGGSGGGASQSGLTQPPSTSGSPGQSVTISCTGTSSDVGAYSYVSWYQQHPGKAPKLLIYAVTKRPSGVPDRFSGSKSGNTASLTVSGLQDEDEADYYCSSFAGGSTLVFGGGTKLTVL
notes: also called 2437_02_G10
B5: scFv C07 (positive control), 5F9 scFv (scFv)
scFv: EIVMTQSPATLSVSPGERATLSCRASQSVSRNLAWYQQKPGQAPRLLIYGASTRATGIPARFSGSGSGTEFTLTIGSLQSEDFAVYYCQQYKTWPRTFGQGTNVEIKASGGGGSGGGGSGGGGSGGGGSELQVQLQQWGAGLLKPSETLSLTCAVFGGSFSGYYWSWIRQPPGKGLEWIGEINHRGNTNDNPSLKSRVTISVDTSKNQFALKLSSVTAADTAVYYCARERGYTYGNFDHWGQGTLVTVSS
notes: also called 5F9 scFv-Fc
B6: scFv A01 (scFv)
scFv: QVQLVQSGAEVKKPGASVKVSCKASGYTFTSYYMHWVRQAPGQGLEWMGIINPSGGSTSYAQEFQGRVTMTRDTSTSTVYMELSSLRSEDTAVYYCARDGQWLQFDYWGQGTLVTVSSGGGGSGGGGSGGGASDIVMTQSPLSLPVTLGQPASISCRSSQSLLKKSDGNTYLSWYHQRPGQSPRRLIYKVSNRDSGVPDRFSGSGSDTDFTLKISRVETEDVGIYYCMQGSHWPPTFGQGTKVEIK
notes: also called 2426_01_A02
B7: scFv B08 (scFv)
scFv: EVQLVQSGAEVKKPGSSVKVSCKASGGTFSSYAISWVRQAPGQGLEWMGGIIPIFGTANYAQKFQGRVTITADKSTSTAYMELSSLRSEDTAVYYCARGHYYYMDVWGQGTTVTVSSGGGGSGGGGSGGGASDIVMTQSPATLSVSPGEGATLSCRASQSVSSNLAWYQQKPGRAPRLLIYGASTRATGIPARFSGSGSGTEFTLTISSLQSEDFAVYYCQQYNNWPSFGGGTKLEIK
notes: also called 2436_02_F11
B8: scFv A08 (scFv)
scFv: EVQLLESGGGLVQPGGSLRLSCAASGFTFSSYWMSWVRQAPGKGLEWVANIKQDGSEKYYVDSVKGRFTISRDNAKNSLYLQMNSLRAEDTAVYYCAKAPWYSSSPTPYGMDVWGQGTLVTVSSGGGGSGGGGSGGGASDIQMTQSPSSLSASVGDRVTITCQASQDISNYLNWYQQKPGKAPRRLIYGASTLMSGVPSRFSGSGSGTDFTLTISSLQPEDFATYYCQQSYSTPLTFGGGTKVEIK
notes: also called 2432_01_D05

Molecular target: T2, GUCY2C on the cell surface (T84 colon carcinoma cells; HT29-GUCY2C cells) (human, UniProt P25092 24-1073)
T2 construct: whole, on cells; also called GUCY2C expressing T84 cells; HT29 GCC cells
Assay: flow cytometry on T84 cells, median MFI on live singlet cells (IgG-Fc-PE signal), scFv(-Fc) at 10 ug/mL
Protocol: (§1) Using cells naturally expressing GUCY2C, whether 18 kinds of scFvs produced in Example 1 could actually detect GUCY2C expression on the cell surface was confirmed. For this, a GUCY2C positive cancer cell, T84 colon carcinoma cell (ATCC® CCL248™) was used.
(§2) After separating the two cell lines using trypsin-EDTA, they were placed in FACS buffer (1×PBS+2% BSA). 10 ug/mL of each of the 18 kinds of scFvs and positive control group, 5F9 scFv was cultured with T84 and T-47D cells on ice for 1 hour. The scFv combined to cells was detected using 5 ug/mL IgG-Fc-PE Ab (BioLegend; 409304). The cells were cultured with ToPro®3 (live/dead stain) and then red with a flow cytometer.

Binder	binding result
B1	binds

Molecular target: T3, human GUCY2C-rCD4 fusion protein (Homo sapiens (human); Rattus norvegicus, biotinylated (site not given))
T3 construct: GUCY2C conjugated/fused with CD4; also called Hu-GUCY2C-rCD4; human GUCY2C recombinant antigen
Assay: ranking ELISA (DELFIA), 50 nM scFv on anti-FLAG, biotinylated antigen, streptavidin-Eu
Protocol: (§3) More specifically, after coating an anti-FLAG antibody in a MaxiSorb plate and binding by adding scFvs obtained previously, the remaining scFvs were removed by a washing process. Here, a biotinylated human-GUCY2C-rCD4 protein was incubated and combined, and then the affinity to the antigen was measured by reading signals by DELFIA enhancement with color development through streptavidin-Europlum.

Binder	Affinity Ranking ELISA (50 nM) signal
B2	133000
B3	243000
B4	77100
B1	89600
B5	184000

Molecular target: T2, GUCY2C on the cell surface (T84 colon …)
Assay: flow cytometry, scFv(-Fc) at 10 ug/mL on GUCY2C-positive T84 cells, detected with IgG-Fc-PE Ab (FL2-H)
Protocol: as §1, §2

Binder	binding result
B2	binds
B3	binds
B4	binds
B5	binds

Molecular target: T3, human GUCY2C-rCD4 fusion protein
Assay: ranking ELISA (DELFIA), 5 nM scFv on anti-FLAG, biotinylated antigen, streptavidin-Eu
Protocol: as §3

Binder	Affinity Ranking ELISA (5 nM) signal
B2	26200
B3	81200
B4	9590
B1	14800
B5	133000

Molecular target: T3, human GUCY2C-rCD4 fusion protein
Assay: ELISA (DELFIA), antigen on streptavidin plate, scFv culture solution, Eu-anti-tag Ab; binding ELISA, Hu-GUCY2C-rCD4 antigen: binds
Protocol: (§4) More specifically, GUCY2C-rCD4 fusion protein, in which the prepared human GUCY2C (SEQ ID NO: 112), monkey GUCY2C (SEQ ID NO: 114), and mouse GUCY2C (SEQ ID NO: 113) were fused, respectively, was bound to a place coated with streptavidin in a Nunc Maxisorp™96 well plate. After removing all the synthetic proteins not combined with washing buffer, the anti-GUCY2C scFV obtained in the culture solution was incubated in each well. After that, the affinity was measured by reading signals DELFIA enhanced using Eu-anti-tag Ab.

Binder	Binding ELISA signal
B6	30200
B7	61100
B8	58100

Molecular target: T3, human GUCY2C-rCD4 fusion protein
Assay: ranking ELISA (DELFIA), 5 nM scFv on anti-FLAG, biotinylated antigen, streptavidin-Eu; affinity ranking ELISA, 5 nM: binds
Protocol: as §3

Binder	Affinity Ranking ELISA (5 nM) signal
B6	13800
B7	23300
B8	8700

Molecular target: T3, human GUCY2C-rCD4 fusion protein
Assay: ranking ELISA (DELFIA), 50 nM scFv on anti-FLAG, biotinylated antigen, streptavidin-Eu; affinity ranking ELISA, 50 nM: binds
Protocol: as §3

Binder	Affinity Ranking ELISA (50 nM) signal
B6	104000
B7	153000
B8	54800

Molecular target: T1, monkey GUCY2C-rCD4 fusion protein
Assay: ELISA (DELFIA), antigen on streptavidin plate, scFv culture solution, Eu-anti-tag Ab
Protocol: as §4

Binder	Binding ELISA signal
B2	4490
B3	37200
B6	28100
B4	22100
B1	23600
B5	49200

Molecular target: T3, human GUCY2C-rCD4 fusion protein
Assay: as above
Protocol: as §4

Binder	Binding ELISA signal
B2	39400
B3	55400
B4	30900
B1	37500
B5	83900

Molecular target: T3, human GUCY2C-rCD4 fusion protein
Assay: SPR (Sierra SPR-32), scFv on protein G, antigen 800-12.5 nM, 25 C
Protocol: Furthermore, the affinity to the GUCY2C antigen of the 18 kinds of scFvs produced in Example 1 was measured by SPR (Surface plasmon resonance) analysis.
SPR assay was performed with association time 2 min and dissociation time 10 min under the condition of 25 degrees of Celsius using MASS2 (Sierra SPR-32; Bruker). The data were analyzed with Software R3.

Binder	Kd [nM]
B2	335
B3	48
B4	4540
B1	1330
B5	15
